Test results as given in paper PMC8928434, “Production of Putrescine and Cadaverine by Paucilactobacillus wasatchensis” (Frontiers in Microbiology, 2022).

B1: Odc1_Lw35 (Odc1) (Paucilactobacillus wasatchensis) (protein)
chain: MKLLGIACSEEAQKYFKTTRDIIDAEKDSDFTDVAAIVLTEDDLDLINKIDETHFDIPVFLITNDAAKIDKDLRAKIYHLIDDDAKYTNMYDGEIEAAAVEYEKKMMPPFFEELQKYADEGNLSFTTPGHHAGKFFMRHPAGRWLVNYYGENLFRSDLSSSDVAVGDLLTHGGAPLSAEQHAAKVFNADKTYFVMNGTSTSNAIVTSAAVAPGDLVLFDRNNHKSSYISALENAGGIPIYLQTERNPFGFIGGISDAVFNEKHIRELIAKVDPKRAKEKRPIRLAIIELGTYDGSIYDARQVVDRIGSLCDYIQFDSAWVGYEQFIPMMKPSSPLLLDLGPEDPGILVTQSVHKQQAALSQGSQIHKKDKHIKGQKRYITHKRFNNAYMKYTSTSPFYPMYASLDVNAYLMEGKAGAEMWKNTVKLGIEARKRMLNESKLFTPFIPTVVNGKKWEDGDTEEMADNLDFWRFKKGESWHSFEGYADNQYYIDPLKVMFKTPGINMETGEYEDFGIPATILASYLREHGIVPEKSDLNSILFLLTPAETKTKLDNLVNLILRFEDLIEKDEKLENVLPHVYADNASRYRGYTIRQLCQEMHNFYKQSNAKKFQKELFQEATLPEQAMTPYAADKELIRNNAELIPLQDIVGRVALEGGLPYPPGIFVIAPGERWTESAQKYFLILQDGINQFPGFSPEIQGVYNEPQADGKVKAYGYVLDDESVIKKN
notes: full length (native 726 aa), C-terminal His-tag (pEG-His1, BamHI/SalI), E. coli BL21(DE3), Ni-TED purified

How the values were obtained:
[1] = tested on: Odc2_C19 (Odc2); conditions: 50 mM phosphate pH 5.5, 50 μM pyridoxal 5'-phosphate, 37°C; substrate 1-50 mM
From the text: HPLC of o-phthalaldehyde-derivatized amine product (decarboxylation), Michaelis-Menten fit on Odc2_C19 (Odc2)

[2] = substrate: NCCCC[C@H](N)C(=O)O; test: HPLC of o-phthalaldehyde-derivatized amine product (decarboxylation), Michaelis-Menten fit; assay type: biochemical, Paucilactobacillus wasatchensis; conditions: 50 mM phosphate pH 5.5, 50 μM pyridoxal 5'-phosphate, 37°C, substrate 1-50 mM
From the text: HPLC of o-phthalaldehyde-derivatized amine product (decarboxylation), Michaelis-Menten fit on Odc1_Lw35 (Odc1)

Row | Molecule | Km [1] | Km [2] | kcat [2]
1 | NCCCC[C@H](N)C(=O)O [L-Lysine] | 20.2 mM | – | –
2 | B1 | – | 16.0 ± 1.8 mM | 3 ± 0.1 s⁻¹
